Test results as given in paper PMC4460869.

Target: GST-tagged BmAPN4 (silkworm aminopeptidase N 4) (Bombyx mori)

trypsin-activated parasporal crystal toxin (PC) from Bacillus bombysepticus (domain or fragment)
proportion of viable BmAPN4-expressing Sf9 cells after PC, counted in 50 optical fields: 15.8% | release of total intracellular LDH from BmAPN4-transfected Sf9 cells into the medium after trypsin-activated PC, 6 h; untransfected Sf9 cells not affected: 35.3%
